# Reference: PMC9795577, “Protein import into peroxisomes occurs through a nuclear pore-like phase” (Science (New York, N.Y.), 2022)
# B1: isolated YG domain of Arabidopsis thaliana PEX13, amino acids 76–193 (domain or fragment)
# chain: EQQNYGSTMGGGYGSNLGMTSGYGSGTYGSALGGYGSSYGGGMYGGSSMYRGGYGGGGLYGSSGMYGGGAMGGYGGTMGGYGMGMGTGMGMGMGMGMGGPYGSQDPNDPFNQPPSPPGC
# notes: PEX13 of Arabidopsis thaliana, GenBank NP_187412.1, amino acids 76-193 (YG domain); single engineered cysteine at the C terminus for covalent derivatization; also called YG domain alone; source: E. coli BL21 Rosetta 2(DE3), purified under denaturing conditions (Ni-NTA), tag removed with TEV protease; not shown: 14×His, N-terminal, cleaved
# B2: entire unstructured N-terminal region (including the YG domain) of Arabidopsis thaliana PEX13, amino acids 1–193 (domain or fragment)
# chain: MASQPAGGSPPKPWEKEGNTSGPNPFRPPSNTSTAGSVEASGTANPGEVVPPPVNRPNTAANMNSLSRPVPARPWEQQNYGSTMGGGYGSNLGMTSGYGSGTYGSALGGYGSSYGGGMYGGSSMYRGGYGGGGLYGSSGMYGGGAMGGYGGTMGGYGMGMGTGMGMGMGMGMGGPYGSQDPNDPFNQPPSPPGC
# notes: PEX13 of Arabidopsis thaliana, GenBank NP_187412.1, amino acids 1-193; single engineered cysteine at the C terminus for covalent derivatization; In the permeation assay it stood as a hydrogel droplet formed at 40 mg/ml (2 mM); also called N-terminal fragment; full-length fragment; source: E. coli BL21 Rosetta 2(DE3), purified under denaturing conditions (Ni-NTA), tag removed with TEV protease; …
# B3: full-length PEX5 fused to GFP (receptor)
# chain: not shown
# modifications: C-terminal GGSGGS linker and mEGFP left out
# Key:
# [1] = molecular target: the molecule itself; experiment: hydrogel formation (gelation); purified fragment concentrated to 40 mg/ml (2 mM) in 2 M urea, 50 mM HEPES-NaOH pH 8.0, 1 mM TCEP, 1 mM EDTA, left in silicone tubing at room temperature, squeezed out and photographed
# [2] = molecular target: B2; experiment: hydrogel permeation assay (confocal microscopy); droplets of the PEX13 1-193 hydrogel (40 mg/ml) in 25 mM HEPES-KOH pH 7.8, 130 mM KCl; GFP fusion proteins or GFP alone added at 500 nM; enrichment inside the gel over buffer after 30 min; conditions: both partners purified
binder,measurement,setting,value
B1,binding result,[1],binds
B2,binding result,[1],binds
B3,fold enrichment inside the gel over buffer,[2],~20 fold
